Results: PMC2932737, “DNA Clasping by Mtb HU”

Assays:
[1] = biological target: HupBMtb (HU, MDP-1, HLPMt) (Mycobacterium tuberculosis H37Rv) (UniProt P9WMK7); assay: agarose EMSA; conditions: scale: fold higher affinity than for linear pBSK
[2] = biological target: HupBMtb (HU, MDP-1, HLPMt) (Mycobacterium tuberculosis H37Rv) (UniProt P9WMK7); assay: EMSA
[3] = biological target: T1, HupBMtb (HU, MDP-1, HLPMt) (Mycobacterium tuberculosis H37Rv, UniProt P9WMK7 3-216); assay: EMSA; 0-300 nM protein; negligible; conditions: protein: recombinant; tags: His (pET28a, NdeI/HindIII); chain copies: 2; label: 5' 32P; blunt
T1 sequence (P9WMK7 3-216): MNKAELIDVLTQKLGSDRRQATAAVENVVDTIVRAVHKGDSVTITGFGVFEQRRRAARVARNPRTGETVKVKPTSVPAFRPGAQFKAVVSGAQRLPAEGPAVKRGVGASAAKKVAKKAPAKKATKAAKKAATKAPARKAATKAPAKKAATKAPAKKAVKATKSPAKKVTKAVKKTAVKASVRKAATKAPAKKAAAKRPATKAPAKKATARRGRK

[4] = biological target: T1, HupBMtb (HU, MDP-1, HLPMt); assay: EMSA; 200 mM KCl; conditions: protein: recombinant, tags: His (pET28a, NdeI/HindIII), chain copies: 2, label: 5' 32P, blunt
HupBMtbN [5] = biological target: T2, HupBMtbN (Mycobacterium tuberculosis H37Rv, UniProt P9WMK7 3-97); assay: EMSA; 10 mM KCl; conditions: protein: recombinant, tags: His (pET28a, NdeI/HindIII), chain copies: 2, label: 5' 32P, blunt
T2 sequence (P9WMK7 3-97): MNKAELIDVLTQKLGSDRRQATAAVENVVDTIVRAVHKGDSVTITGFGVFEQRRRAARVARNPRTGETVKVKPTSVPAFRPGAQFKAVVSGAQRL

[6] = biological target: T1, HupBMtb (HU, MDP-1, HLPMt); assay: EMSA; 10 mM KCl; conditions: protein: recombinant, tags: His (pET28a, NdeI/HindIII), chain copies: 2, label: 5' 32P, blunt
[7] = biological target: T1, HupBMtb (HU, MDP-1, HLPMt); assay: EMSA; 0-300 nM protein; two complexes; conditions: protein: recombinant; tags: His (pET28a, NdeI/HindIII); chain copies: 2; label: 5' 32P; blunt
HupBMtbN [8] = biological target: T2, HupBMtbN; assay: EMSA; 0-300 nM protein; single complex; conditions: protein: recombinant; tags: His (pET28a, NdeI/HindIII); chain copies: 2; label: 5' 32P; blunt
[9] = 48 bp duplex with nick in the lower strand
[10] = duplex with 1 nt gap in the lower strand
[11] = duplex with 2 nt gap in the lower strand

HupBMtb (HU, MDP-1, HLPMt) (Mycobacterium tuberculosis H37Rv), sequence (P9WMK7 3-216): as the sequence (P9WMK7 3-216) above

In the case of pBluescript SK supercoiled, the binding signal [1] is reported as 1.5.

Molecule “CTCTGTGACTGGTGTGACCTGGGAGAGAGAAGTTTTTTTAAGAACGTT (double strand) [A1 ds DNA (SH_1+SH_2)]” has a Kd [2] of 42 nM.

B1: A6 84% GC DNA (SH_10+SH_11) (dsDNA)
DNA 1: GCCCGGCTGCACCGCGCCACCGCGG
DNA 2: CCGCGGTGGCGCGGTGCAGCCGGGC
B1: no binding [3].

B2: A2 nick DNA (SH_1+SH_3+SH_4) (structured_DNA)
DNA 1: CTCTGTGACTGGTGTGACCTGGGAGAGAGAAGTTTTTTTAAGAACGTT
DNA 2: TCCCAGGTCACACCAGTCACAGAG
DNA 3: AACGTTCTTAAAAAAACTTCTCTC
B2 was tested, and the Kd [4, 9] was 65 nM and the Kd (HupBMtbN [5]; [9]) was 1000 nM.

B3: A3 1-nt gap DNA (SH_1+SH_3+SH_5) (structured_DNA)
DNA 1: CTCTGTGACTGGTGTGACCTGGGAGAGAGAAGTTTTTTTAAGAACGTT
DNA 2: TCCCAGGTCACACCAGTCACAGAG
DNA 3: AACGTTCTTAAAAAAACTTCTCT
B3 gave a Kd (HupBMtbN [5]; [10]) of 725 nM and a Kd [6, 10] of 55 nM.

B4: A4 2-nt gap DNA (SH_1+SH_3+SH_6) (structured_DNA)
DNA 1: CTCTGTGACTGGTGTGACCTGGGAGAGAGAAGTTTTTTTAAGAACGTT
DNA 2: TCCCAGGTCACACCAGTCACAGAG
DNA 3: AACGTTCTTAAAAAAACTTCTC
B4 gave a Kd [4, 11] of 88 nM, a Kd (HupBMtbN [5]; [11]) of 536 nM and a Kd [6, 11] of 60 nM.

B5: A7 64% AT DNA (SH_12+SH_13) (dsDNA)
DNA 1: TCAAATCTAATCGGAGTCGTTTTGA
DNA 2: TCAAAACGACTCCGATTAGATTTGA
B5: binds [7]; binds (HupBMtbN [8]).
